From PMC8642528

Biological target: Myeloid-associated differentiation marker (human) (human (endogenous in blood eosinophils of asthmatic volunteers)) (UniProt Q96S97)
UniProt Q96S97, sequence (Q96S97 whole entry): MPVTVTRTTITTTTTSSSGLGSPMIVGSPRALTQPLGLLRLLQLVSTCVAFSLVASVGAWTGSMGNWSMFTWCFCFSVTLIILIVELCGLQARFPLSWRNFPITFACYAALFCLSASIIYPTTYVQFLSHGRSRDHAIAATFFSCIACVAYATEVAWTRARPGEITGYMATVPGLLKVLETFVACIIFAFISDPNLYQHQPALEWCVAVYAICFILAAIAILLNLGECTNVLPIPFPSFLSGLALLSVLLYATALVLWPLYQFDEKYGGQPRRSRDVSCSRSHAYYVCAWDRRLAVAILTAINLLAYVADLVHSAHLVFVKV

Surfactant protein A (SP-A), preparation genotyped as homozygous for Q (Q/Q) at position 223 of SP-A2 (from UniProt Q8IWL2 21-248; Q8IWL1 21-248) (complex)
percent change in apoptotic human eosinophils (Siglec-8+, Annexin V/PI, flow cytometry, 16 h with SP-A) with pre-treatment using anti-MYADM (Invitrogen PA1-41578) compared to SP-A only: 22.5%
